# Laboratory results: US20080193979A1
# Biological target: streptavidin (UniProt P22629)
# Assay: recovery of cells on streptavidin coated magnetic beads (Dynal)
# streptavidin, sequence (P22629 37-163 limits assumed): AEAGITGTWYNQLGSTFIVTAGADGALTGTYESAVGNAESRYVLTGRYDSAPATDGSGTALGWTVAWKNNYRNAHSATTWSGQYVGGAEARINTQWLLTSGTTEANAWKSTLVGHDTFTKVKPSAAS
substance,measurement,value
"Ramos IgM (unselected / wild-type Ramos cells, surface and secreted IgM) (antibody)",proportion of cells which bind to the beads,0.02%
